Data: patent US7226755

B1: full length HPTPbeta protein (splice variant lacking FNIII repeat 5) (protein)
chain: EPERCNFTLAESKASSHSVSIQWRILGSPCNFSLIYSSDTLGAALCPTFRIDNTTYGCNLQDLQAGTIYNFKIISLDEERTVVLQTDPLPPARFGVSKEKTTSTGLHVWWTPSSGKVTSYEVQLFDENNQKIQGVQIQESTSWNEYTFFNLTAGSKYNIAITAVSGGKRSFSVYTNGSTVPSPVKDIGISTKANSLLISWSHGSGNVERYRLMLMDKGILVHGGVVDKHATSYAFHGLTPGYLYNLTVMTEAAGLQNYRWKLVRTAPMEVSNLKVTNDGSLTSLKVKWQRPPGNVDSYNITLSHKGTIKESRVLAPWITETHFKELVPGRLYQVTVSCVSGELSAQKMAVGRTFPLAVLQLRVKHANETSLSIMWQTPVAEWEKYIISLADRDLLLIHKSLSKDAKEFTFTDLVPGRKYMATVTSISGDLKNSSSVKGRTVPAQVTDLHVANQGMTSSLFTNWTQAQGDVEFYQVLLIHENVVIKNESISSETSRYSFHSLKSGSLYSVVVTTVSGGISSRQVVVEGRTVPSSVSGVTVNNSGRNDYLSVSWLLAPGDVDNYEVTLSHDGKVVQSLVIAKSVRECSFSSLTPGRLYTVTITTRSGKYENHSFSQERTVPDKVQGVSVSNSARSDYLRVSWVHATGDFDHYEVTIKNKNNFIQTKSIPKSENECVFVQLVPGRLYSVTVTTKSGQYEANEQGNGRTIPEPVKDLTLRNRSTEDLHVTWSGANGDVDQYEIQLLFNDMKVFPPFHLVNTATEYRFTSLTPGRQYKILVLTISGDVQQSAFIEGFTVPSAVKNIHISPNGATDSLTVNWTPGGGDVDSYTVSAFRHSQKVDSQTIPKHVFEHTFHRLEAGEQYQIMIASVSGSLKNQINVVGRTVPASVQGVIADNAYSSYSLIVSWQKAAGVAERYDILLLTENGILLRNTSEPATTKQHKFEDLTPGKKYKIQILTVSGGLFSKEAQTEGRTVPAAVTDLRITENSTRHLSFRWTASEGELSWYNIFLYNPDGNLQERAQVDPLVQSFSFQNLLQGRMYKMVIVTHSGELSNESFIFGRTVPASVSHLRGSNRNTTDSLWFNWSPASGDFDFYELILYNPNGTKKENWKDKDLTEWRFQGLVPGRKYVLWVVTHSGDLSNKVTAESRTAPSPPSLMSFADIANTSLAITWKGPPDWTDYNDFELQWLPRDALTVFNPYNNRKSEGRIVYGLRPGRSYQFNVKTVSGDSWKTYSKPIFGSVRTKPDKIQNLHCRPQNSTAIACSWIPPDSDFDGYSIECRKMDTQEVEFSRKLEKEKSLLNIMMLVPHKRYLVSIKVQSAGMTSEVVEDSTITMIDRPPPPPPHIRVNEKDVLISKSSINFTVNCSWFSDTNGAVKYFTVVVREADGSDELKPEQQHPLPSYLEYRHNASIRVYQTNYFASKCAENPNSNSKSFNIKLGAEMESLGGKCDPTQQKFCDGPLKPHTAYRISIRAFTQLFDEDLKEFTKPLYSDTFFSLPITTESEPLFGAIEGVSAGLFLIGMLVAVVALLICRQKVSHGRERPSARLSIRRDRPLSVHLNLGQKGNRKTSCPIKINQFEGHFMKLQADSNYLLSKEYEELKDVGRNQSCDIALLPENRGKNRYNNILPYDATRVKLSNVDDDPCSDYINASYIPGNNFRREYIVTQGPLPGTKDDFWKMVWEQNVHNIVMVTQCVEKGRVKCDHYWPADQDSLYYGDLILQMLSESVLPEWTIREFKICGEEQLDAHRLIRHFHYTVWPDHGVPETTQSLIQFVRTVRDYINRSPGAGPTVVHCSAGVGRTGTFIALDRILQQLDSKDSVDIYGAVHDLRLHRVHMVQTECQYVYLHQCVRDVLRARKLRSEQENPLFPIYENVNPEYHRDPVYSRH
B2: recombinant HPTPbeta catalytic domain (protein)
chain: GDRPLSVHLNLGQKGNRKTSCPIKINQFEGHFMKLQADSNYLLSKEYEELKDVGRNQSCDIALLPENRGKNRYNNILPYDATRVKLSNVDDDPCSDYINASYIPGNNFRREYIVTQGPLPGTKDDFWKMVWEQNVHNIVMVTQCVEKGRVKCDHYWPADQDSLYYGDLILQMLSESVLPEWTIREFKICGEEQLDAHRLIRHFHYTVWPDHGVPETTQSLIQFVRTVRDYINRSPGAGPTVVHCSAGVGRTGTFIALDRILQQLDSKDSVDIYGAVHDLRLHRVHMVQTECQYVYLHQCVRDVLRARKLRSEQHHHHHH

Tests used:
[1] = molecular target: full length human VEGF receptor type 2 (VEGFR2)
[2] = molecular target: full length human Tie-2 receptor
[3] = molecular target: T1, recombinant GST fusion of the Tie-2 intracellular kinase domain
T1 chain: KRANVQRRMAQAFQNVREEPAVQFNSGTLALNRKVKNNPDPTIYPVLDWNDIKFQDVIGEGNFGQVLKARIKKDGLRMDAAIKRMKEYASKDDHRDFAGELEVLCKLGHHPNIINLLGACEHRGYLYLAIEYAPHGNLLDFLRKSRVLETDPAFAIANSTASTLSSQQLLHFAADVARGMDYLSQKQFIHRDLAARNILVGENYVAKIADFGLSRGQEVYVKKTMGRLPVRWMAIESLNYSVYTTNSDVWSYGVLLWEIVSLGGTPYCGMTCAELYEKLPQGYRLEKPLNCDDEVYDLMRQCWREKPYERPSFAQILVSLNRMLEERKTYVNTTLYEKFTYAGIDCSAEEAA

[4] = molecular target: recombinant GST fusion of the VEGFR2 intracellular kinase domain
Chain of recombinant GST fusion of the VEGFR2 intracellular kinase domain (chain, as listed by the source): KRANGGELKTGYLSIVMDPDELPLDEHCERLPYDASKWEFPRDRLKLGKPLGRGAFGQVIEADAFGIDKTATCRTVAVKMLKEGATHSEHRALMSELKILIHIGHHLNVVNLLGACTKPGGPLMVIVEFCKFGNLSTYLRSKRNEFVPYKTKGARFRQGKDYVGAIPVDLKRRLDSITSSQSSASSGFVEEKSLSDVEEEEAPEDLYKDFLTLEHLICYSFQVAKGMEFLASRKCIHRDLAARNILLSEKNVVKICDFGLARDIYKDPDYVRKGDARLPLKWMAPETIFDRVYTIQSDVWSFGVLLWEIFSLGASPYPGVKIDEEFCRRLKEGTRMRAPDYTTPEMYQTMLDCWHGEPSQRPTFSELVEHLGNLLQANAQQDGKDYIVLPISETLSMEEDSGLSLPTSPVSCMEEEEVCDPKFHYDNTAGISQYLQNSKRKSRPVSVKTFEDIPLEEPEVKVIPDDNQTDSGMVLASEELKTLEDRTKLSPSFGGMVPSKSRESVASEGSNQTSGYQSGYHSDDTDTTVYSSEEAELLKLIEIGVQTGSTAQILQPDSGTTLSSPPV

Chain of full length human VEGF receptor type 2 (VEGFR2) (chain, as listed by the source): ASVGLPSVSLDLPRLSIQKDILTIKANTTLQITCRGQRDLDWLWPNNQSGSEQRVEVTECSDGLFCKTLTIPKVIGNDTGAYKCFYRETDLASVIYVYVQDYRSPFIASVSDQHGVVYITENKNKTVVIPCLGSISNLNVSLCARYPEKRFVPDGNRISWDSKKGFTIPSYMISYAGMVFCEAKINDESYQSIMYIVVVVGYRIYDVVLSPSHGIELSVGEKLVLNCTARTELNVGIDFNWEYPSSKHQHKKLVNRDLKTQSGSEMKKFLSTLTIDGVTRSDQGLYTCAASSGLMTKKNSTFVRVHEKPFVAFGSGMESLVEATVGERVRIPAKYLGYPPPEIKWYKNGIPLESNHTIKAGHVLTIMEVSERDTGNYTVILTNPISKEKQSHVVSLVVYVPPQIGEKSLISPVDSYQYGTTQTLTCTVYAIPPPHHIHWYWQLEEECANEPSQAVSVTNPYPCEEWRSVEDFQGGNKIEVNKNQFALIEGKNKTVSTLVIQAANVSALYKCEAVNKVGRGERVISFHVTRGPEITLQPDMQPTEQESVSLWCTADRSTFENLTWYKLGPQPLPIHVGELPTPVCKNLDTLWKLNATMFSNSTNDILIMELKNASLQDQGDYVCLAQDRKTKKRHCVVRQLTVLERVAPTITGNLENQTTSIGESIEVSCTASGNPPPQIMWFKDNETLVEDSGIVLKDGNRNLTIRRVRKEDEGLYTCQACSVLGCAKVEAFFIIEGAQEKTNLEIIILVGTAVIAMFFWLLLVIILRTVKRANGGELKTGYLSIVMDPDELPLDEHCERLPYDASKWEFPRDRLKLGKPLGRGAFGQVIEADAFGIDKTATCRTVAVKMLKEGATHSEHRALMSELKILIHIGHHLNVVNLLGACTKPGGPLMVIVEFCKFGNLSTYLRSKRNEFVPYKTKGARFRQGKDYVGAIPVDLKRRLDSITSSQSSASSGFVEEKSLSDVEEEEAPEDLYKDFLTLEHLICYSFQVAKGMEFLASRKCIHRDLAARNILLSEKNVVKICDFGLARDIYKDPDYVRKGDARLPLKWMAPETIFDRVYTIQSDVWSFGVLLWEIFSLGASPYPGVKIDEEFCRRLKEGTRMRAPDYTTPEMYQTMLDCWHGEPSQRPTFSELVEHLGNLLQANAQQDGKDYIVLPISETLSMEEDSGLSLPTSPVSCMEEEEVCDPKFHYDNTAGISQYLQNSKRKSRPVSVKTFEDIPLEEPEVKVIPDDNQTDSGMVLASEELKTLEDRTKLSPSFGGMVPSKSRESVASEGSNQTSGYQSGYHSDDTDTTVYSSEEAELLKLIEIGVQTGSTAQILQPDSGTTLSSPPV

Protein	ligand-induced phosphorylation of the endogenous receptor (anti-phosphotyrosine western blot of immunoprecipitated receptor) in VEGFA stimulated HUVECs [1]	ligand-induced phosphorylation of the endogenous receptor (anti-phosphotyrosine western blot of immunoprecipitated receptor) in Ang1 stimulated HUVECs [2]	anti-phosphotyrosine western blotting of the bead-bound autophosphorylated kinase domain after 2 hours at 37 C with increasing amounts of recombinant HPTPbeta [3]	anti-phosphotyrosine western blotting of the bead-bound autophosphorylated kinase domain after 2 hours at 37 C with increasing amounts of recombinant HPTPbeta [4]
B1	adenoviral overexpression of HPTPbeta in endothelial cells decreased in ligand-induced phosphorylation of the endogenous VEGFR2 and Tie-2 receptors	adenoviral overexpression of HPTPbeta in endothelial cells decreased in ligand-induced phosphorylation of the endogenous VEGFR2 and Tie-2 receptors		
B2			a dose dependent decrease in the phosphorylation of recombinant VEGFR2 and Tie-2	a dose dependent decrease in the phosphorylation of recombinant VEGFR2 and Tie-2
